Tests used:
Experiment in all cases: cell-based or functional assay
[1] = target: human voltage-gated sodium channel Nav1.7 (human) (UniProt Q15858)
[2] = target: human voltage-gated sodium channel Nav1.4 (human) (UniProt P35499)
[3] = target: human voltage-gated sodium channel Nav1.5 (human) (UniProt Q14524)
[4] = target: human voltage-gated sodium channel Nav1.3 (human) (UniProt Q9NY46)
[5] = target: TTX-sensitive Nav channels in mouse DRG neurons
[6] = target: human Nav1.7 voltage-gated sodium channel (human) (UniProt Q15858)
Sequence of human Nav1.7 voltage-gated sodium channel (human) (Q15858 whole entry): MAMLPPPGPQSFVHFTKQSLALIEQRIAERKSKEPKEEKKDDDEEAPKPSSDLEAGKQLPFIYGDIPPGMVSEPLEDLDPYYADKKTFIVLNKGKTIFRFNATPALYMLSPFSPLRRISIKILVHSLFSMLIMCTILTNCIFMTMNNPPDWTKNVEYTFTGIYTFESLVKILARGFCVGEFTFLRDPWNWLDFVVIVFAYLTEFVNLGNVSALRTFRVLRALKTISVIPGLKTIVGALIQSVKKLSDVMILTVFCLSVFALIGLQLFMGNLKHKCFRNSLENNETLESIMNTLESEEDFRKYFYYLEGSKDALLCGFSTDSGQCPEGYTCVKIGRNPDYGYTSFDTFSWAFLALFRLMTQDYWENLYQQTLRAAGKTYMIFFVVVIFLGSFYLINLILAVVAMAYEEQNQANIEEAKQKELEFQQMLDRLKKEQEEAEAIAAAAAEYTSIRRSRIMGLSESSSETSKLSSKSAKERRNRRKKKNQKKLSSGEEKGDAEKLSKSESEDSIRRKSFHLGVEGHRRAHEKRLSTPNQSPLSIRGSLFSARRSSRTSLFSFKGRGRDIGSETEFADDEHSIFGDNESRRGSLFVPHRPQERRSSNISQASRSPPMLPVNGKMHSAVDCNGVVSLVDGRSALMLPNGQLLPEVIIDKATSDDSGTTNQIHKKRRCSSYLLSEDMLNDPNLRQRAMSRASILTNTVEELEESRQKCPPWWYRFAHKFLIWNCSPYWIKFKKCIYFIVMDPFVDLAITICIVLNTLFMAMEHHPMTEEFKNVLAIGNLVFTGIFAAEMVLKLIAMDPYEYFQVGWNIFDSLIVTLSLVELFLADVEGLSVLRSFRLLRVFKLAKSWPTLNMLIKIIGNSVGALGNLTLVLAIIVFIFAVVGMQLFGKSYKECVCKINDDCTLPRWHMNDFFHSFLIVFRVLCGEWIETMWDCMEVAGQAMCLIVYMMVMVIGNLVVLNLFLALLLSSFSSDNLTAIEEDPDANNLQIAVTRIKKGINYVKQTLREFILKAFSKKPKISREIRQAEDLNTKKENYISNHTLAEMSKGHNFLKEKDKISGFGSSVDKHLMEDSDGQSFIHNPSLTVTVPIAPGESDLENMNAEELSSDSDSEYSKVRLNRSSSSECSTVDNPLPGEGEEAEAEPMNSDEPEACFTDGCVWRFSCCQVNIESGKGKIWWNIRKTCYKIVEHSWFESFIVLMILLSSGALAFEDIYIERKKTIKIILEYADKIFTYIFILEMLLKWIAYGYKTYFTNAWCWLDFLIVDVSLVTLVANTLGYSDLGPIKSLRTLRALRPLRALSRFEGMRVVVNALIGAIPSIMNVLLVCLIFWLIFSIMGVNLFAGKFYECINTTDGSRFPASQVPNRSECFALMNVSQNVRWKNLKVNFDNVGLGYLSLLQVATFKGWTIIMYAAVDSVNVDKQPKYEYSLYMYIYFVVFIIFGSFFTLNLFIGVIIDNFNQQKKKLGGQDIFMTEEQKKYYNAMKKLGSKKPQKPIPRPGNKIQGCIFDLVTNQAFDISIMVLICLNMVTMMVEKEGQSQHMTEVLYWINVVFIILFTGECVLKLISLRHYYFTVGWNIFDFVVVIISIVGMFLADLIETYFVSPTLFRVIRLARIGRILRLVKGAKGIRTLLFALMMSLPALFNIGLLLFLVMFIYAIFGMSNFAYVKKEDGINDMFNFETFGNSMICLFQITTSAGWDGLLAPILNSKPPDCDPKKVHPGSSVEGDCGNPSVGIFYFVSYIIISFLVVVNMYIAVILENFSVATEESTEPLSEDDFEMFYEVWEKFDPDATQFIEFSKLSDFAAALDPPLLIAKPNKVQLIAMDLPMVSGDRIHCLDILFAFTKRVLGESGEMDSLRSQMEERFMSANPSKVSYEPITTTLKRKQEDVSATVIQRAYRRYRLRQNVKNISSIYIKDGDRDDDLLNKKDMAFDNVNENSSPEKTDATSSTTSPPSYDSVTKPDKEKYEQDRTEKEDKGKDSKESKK

Sequence of human voltage-gated sodium channel Nav1.7 (human) (Q15858 whole entry): as above
Sequence of human voltage-gated sodium channel Nav1.4 (human) (P35499 whole entry): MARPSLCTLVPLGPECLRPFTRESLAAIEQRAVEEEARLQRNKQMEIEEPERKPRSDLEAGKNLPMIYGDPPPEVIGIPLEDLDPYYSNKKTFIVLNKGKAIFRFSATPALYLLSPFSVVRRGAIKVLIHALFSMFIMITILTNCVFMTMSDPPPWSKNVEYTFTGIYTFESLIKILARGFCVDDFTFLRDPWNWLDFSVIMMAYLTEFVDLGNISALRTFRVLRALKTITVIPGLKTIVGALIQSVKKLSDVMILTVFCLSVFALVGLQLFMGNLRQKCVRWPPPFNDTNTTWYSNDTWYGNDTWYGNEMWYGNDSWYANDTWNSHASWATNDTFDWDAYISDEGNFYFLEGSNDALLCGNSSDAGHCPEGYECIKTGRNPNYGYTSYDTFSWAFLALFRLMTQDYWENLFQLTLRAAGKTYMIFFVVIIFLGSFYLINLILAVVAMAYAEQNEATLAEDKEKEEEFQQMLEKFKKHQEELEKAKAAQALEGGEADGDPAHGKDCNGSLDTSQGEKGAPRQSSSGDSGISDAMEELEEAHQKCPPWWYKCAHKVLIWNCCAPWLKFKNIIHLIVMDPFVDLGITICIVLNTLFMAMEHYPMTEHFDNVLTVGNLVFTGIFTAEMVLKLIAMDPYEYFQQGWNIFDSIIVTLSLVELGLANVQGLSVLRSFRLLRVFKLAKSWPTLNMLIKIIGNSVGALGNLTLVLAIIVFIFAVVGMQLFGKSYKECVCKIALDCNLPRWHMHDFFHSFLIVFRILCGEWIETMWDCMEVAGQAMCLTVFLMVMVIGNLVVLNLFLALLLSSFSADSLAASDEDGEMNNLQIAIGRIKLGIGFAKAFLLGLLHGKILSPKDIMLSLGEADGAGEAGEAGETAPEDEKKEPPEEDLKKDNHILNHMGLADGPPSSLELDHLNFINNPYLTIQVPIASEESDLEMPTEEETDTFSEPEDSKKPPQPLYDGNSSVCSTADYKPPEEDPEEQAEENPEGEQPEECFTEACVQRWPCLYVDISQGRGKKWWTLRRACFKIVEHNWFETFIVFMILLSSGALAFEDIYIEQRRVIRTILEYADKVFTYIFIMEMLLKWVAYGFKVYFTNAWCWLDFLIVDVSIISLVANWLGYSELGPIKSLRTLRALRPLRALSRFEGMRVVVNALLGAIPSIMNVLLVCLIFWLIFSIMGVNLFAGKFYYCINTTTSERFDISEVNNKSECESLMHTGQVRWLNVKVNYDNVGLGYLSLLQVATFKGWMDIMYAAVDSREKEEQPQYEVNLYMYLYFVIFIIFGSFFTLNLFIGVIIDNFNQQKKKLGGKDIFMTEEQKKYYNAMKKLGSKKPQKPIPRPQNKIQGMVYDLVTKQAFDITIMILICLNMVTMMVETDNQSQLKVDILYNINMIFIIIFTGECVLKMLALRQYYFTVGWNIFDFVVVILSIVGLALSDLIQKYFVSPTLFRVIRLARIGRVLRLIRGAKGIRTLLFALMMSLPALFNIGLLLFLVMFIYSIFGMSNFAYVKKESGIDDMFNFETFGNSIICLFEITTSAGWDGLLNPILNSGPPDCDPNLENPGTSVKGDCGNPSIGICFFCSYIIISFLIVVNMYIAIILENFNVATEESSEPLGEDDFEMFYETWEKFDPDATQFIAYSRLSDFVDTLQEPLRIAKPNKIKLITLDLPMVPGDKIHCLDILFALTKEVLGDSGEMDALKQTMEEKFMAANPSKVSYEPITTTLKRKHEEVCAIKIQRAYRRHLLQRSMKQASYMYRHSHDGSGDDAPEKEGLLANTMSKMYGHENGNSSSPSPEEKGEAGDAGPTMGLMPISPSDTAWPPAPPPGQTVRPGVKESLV

[Nva7;Glu20;Tyr28]JzTx-V(1-29) (peptide)
IC50, IonWorks Quattro electrophysiology [1]: 4.5 µM | IC50, IonWorks Quattro electrophysiology [2]: > 7 µM | IC50, IonWorks Quattro electrophysiology [3]: > 7 µM | IC50, IonWorks Quattro electrophysiology [4]: > 7 µM

Pra-[Nle6;Glu12,28]JzTx-V(1-29) (peptide)
WCPC Mean IC50, partially inactivated [5]: 144 nM

CyA-[Nle6; Val8; Lys17; Glu28]JzTx-V(1-29) (peptide)
PX hNav1.7 Tonic IC50 [1]: 0.0266 µM

Pra-[Nle6;Glu14,28]JzTx-V(1-29) (peptide)
WCPC Mean IC50, partially inactivated [5]: 99.8 nM

Pra-[Nle6;5-BrW24;Glu28]JzTx-V(1-29) (peptide)
WCPC Mean IC50, partially inactivated [6]: 0.13 nM | WCPC Mean IC50, partially inactivated [5]: 3.8 nM

[Cit7;Glu20;Tyr28]JzTx-V(1-29) (peptide)
IC50, IonWorks Quattro electrophysiology [1]: 5.8 µM | IC50, IonWorks Quattro electrophysiology [2]: > 7 µM | IC50, IonWorks Quattro electrophysiology [3]: > 7 µM | IC50, IonWorks Quattro electrophysiology [4]: > 7 µM

[Nle6;Pra11;Glu20;Trp29]JzTx-V(1-29) (peptide)
IC50, IonWorks Quattro electrophysiology [1]: 0.026 µM

From patent publication US20160024159A1
